Assay results reported in patent publication US20250109177A1, “EVOLVED PROTEIN DEGRONS” (The Broad Institute, Inc., priority 2022, published 2025).
Where no end group is shown, it is not given here.

Target: CRBN of HEK293T cells, with PT-179 (human) (UniProt Q96SW2)
Assay: cell-based or functional assay

Sequence of CRBN of HEK293T cells, with PT-179 (human) (Q96SW2 whole entry): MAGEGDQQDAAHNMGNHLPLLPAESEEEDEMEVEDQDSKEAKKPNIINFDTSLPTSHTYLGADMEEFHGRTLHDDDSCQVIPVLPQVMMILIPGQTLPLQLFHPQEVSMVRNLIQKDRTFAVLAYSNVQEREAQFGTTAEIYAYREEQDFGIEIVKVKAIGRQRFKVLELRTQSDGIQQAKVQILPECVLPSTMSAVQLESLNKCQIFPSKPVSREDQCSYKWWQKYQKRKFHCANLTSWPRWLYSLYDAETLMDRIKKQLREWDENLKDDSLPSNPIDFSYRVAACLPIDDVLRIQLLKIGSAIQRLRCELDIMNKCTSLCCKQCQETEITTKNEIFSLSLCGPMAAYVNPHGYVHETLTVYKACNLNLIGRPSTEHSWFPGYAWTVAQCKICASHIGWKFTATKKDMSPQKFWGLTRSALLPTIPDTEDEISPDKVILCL

Binder | DC50 of PT-179-induced degradation of degron-tagged eGFP in HEK293T cells
SD36-tagged eGFP (degron fused to the N-terminus of eGFP) (designed binder, not shown: large carriers, cysteine pairing not given here) FNVLMVHKRSHTGELLLFCPICGFTCRQKGNLLRHINLHTGEKLFKYHLYNYACQRRDAL-eGFP | 14 nM
LLLFCPICGFTCRQKGNLLRHINLHTGEKLFKYHLY-eGFP (designed binder, not shown: large carriers, cysteine pairing not given here) [SD40-eGFP (degron fused to the N-terminus of eGFP)] | 5 nM
